pKd: −log10 of the molar value.

From US20180346531 come the findings set out here.

Data set [1] concerns S1 zinc finger array (six-finger ATF) (synthetic construct). The data set can be described thus: EMSA. The conditions noted are these: ZBA (10 mM Tris pH 8.5, 90 mM KCl, 1 mM MgCl2, 100 uM ZnCl2), 0.05% NP-40, 0.1 mg/mL BSA, glycerol, room temperature 1.5 h; apparent KD, average of at least …. Background: A gel shift assay detects complexes by their altered migration in electrophoresis.

The test system of data set [2] is S1-KRAB ATF (synthetic construct). Briefly: cell_activity. Conditions: luciferase reporter with target site in HEK293T, p<0.05. For orientation: A reporter such as luciferase makes a cellular process visible.
The subject of data set [3] is SR71-KRAB ATF (synthetic construct). Briefly: cell_activity. Conditions: luciferase reporter with target site in HEK293T, p<0.05.

With “CCTCTTCGCTATTACGCCAGCCATGCGTAGGGAGCCGCGGAACGTTCGATCGTACTCGAGTCAGGGTG (double strand) [S1 EMSA target]”, in data set [1], the pKd was 8.52.

As for “CATGCGTAGGGAGCCGCG (double strand) [S1 target site (18 bp; Snurf promoter)]”, in data set [2], the activity (fold repression) was > 5.

Turning to “GCAGGACCTGCTGCACTG (double strand) [SR71 target site (18 bp)]”, the activity (fold repression) in data set [3] is > 5.

Usually pKd stands for −log10 of the Kd, conventionally taken in molar units.
